Measurements from US11407811B2, “Fusion protein, preparation method therefor and use thereof” (JIANGSU RONGTAI BIOTECH CO., LTD., priority 2017, dated 2022).

Assays:
[1] = tested on: adjuvant arthritis in rat; assay: Chronic inflammation of adjuvant arthritis in rat; type: in vivo; parameters: key to Clinical score Whole body: sum of hind/fore foot, ear, nose, tail scores; full score 8; conditions: for Clinical score Whole body: full score 8; for Foot swelling degree Left: left hind foot (primary inflammation); for Clinical score Arthritis index: maximum score 16; for Foot swelling degree Right: right foot (secondary inflammation)
Protocol: 80 SPF SD rats were randomly divided into 8 groups. Rats in each group were lightly anesthetized with ether. Then, 0.1 mL of complete Freund's adjuvant containing inactivated Mycobacterium tuberculosis was injected subcutaneously into the left hind foot of the rats. Primary arthritis occurred in the left hind foot of the rat, and at about 13 days post-modeling, secondary arthritis occurred in the right hind foot. A blank control group was injected with an equal volume of physiological saline. The drug was administered 13 days after modeling. A methotrexate group was administered by injection every 5 days for 15 days, 4 times in total; the fusion protein I, protein II, protein III, protein IV, and protein V at high, medium and low doses (128 mg/kg, 32 mg/kg, 8 mg/kg) were administered by injection every 5 days for 15 days.
Using a foot volume measuring method, a marker was made with a fat-soluble marker at the left and right posterior ankle joint of each rat, and the left and right hind feet of the animal were respectively immersed in the volume measuring device. The immersion depth was bounded by the marker, and the reading value at the scale pipette of the device was the initial volume of the animal's left and right hind feet.
The day of modeling was considered as the 0th day and recorded as d0. The volume of the left hind foot (modeling foot) was measured from the first day d1 after modeling every 2 days. When the swelling occurred (i.e., secondary arthritis occurred) at the contralateral non-inflammatory foot (right hind foot), the administration was started. The volume of the left and right hind feet was measured every 2 days, and the degree of primary and secondary toe swelling was determined, which was calculated as follows:
Primary toe swelling (mL)=left hind foot volume on the day of measurement-initial volume of left hind foot
Secondary toe swelling (mL)=right hind foot volume on the day of measurement-initial volume of right hind foot 2. Clinical score
Systemic score: the systemic score was taken every 2 days after the onset of secondary inflammation.
Hind foot: no swelling=0 score, one hind foot swelling=1 score, two hind feet swelling=2 scores;
Forefoot: no swelling=0 score, one forefoot swelling=1 score, two forefeet swelling=2 scores;
Ear: no redness and nodules=0 score, redness or nodules in one ear=1 score, redness and nodules in both ears=2 scores;
Nose: no swelling=0 score, obvious swelling=1 score;
Tail: no nodules=0 score, with nodules=1 score; full score was 8 scores.
Arthritis index score: the arthritis index score was performed every 2 days after the onset of secondary inflammation.
The initial body weight of each group of rats was weighed before modeling. The body weight was measured every 2 days from d1 after modeling, from which the initial body weight was subtracted to obtain the weight gain of each group of rats.

[2] = tested on: peritoneal capillary permeability in mice; assay: Peritoneal capillary permeability in mice (HAc, Evans blue); type: in vivo; conditions: for Exudation rate (OD590) / PI (%): mice
Protocol: The drug was administered once by injection (EDSM needed to be administered twice a day), and the blank model group was given an equal volume of physiological saline and fed normally. On the 5th day, a 5 g/L Evans blue physiological saline solution was injected into the tail vein at […], followed by intraperitoneal injection ([…]) of a HAc solution (6 mL/L) to induce inflammation. After 20 min, the mice were sacrificed by cervical dislocation. 5 mL of physiological saline was intraperitoneally injected, the abdomen was gently rubbed for 2 min, the abdominal cavity was cut, a peritoneal washing solution was collected and centrifuged at 4000 rpm for 10 min, 1 mL of supernatant was taken, and 3 mL of physiological saline was added to obtain 4 mL of dilution. The absorbance OD value of the dilution was measured by an ultraviolet spectrophotometer at a wavelength of 590 nm, and the amount of pigment exudation was expressed by the OD590 nm value, and the peritoneal capillary permeability in mice was examined.

human glioma U87 = assay: MTT assay, proliferation of human glioma U87; type: cell-based
Protocol: The MTT assay was used to detect the inhibitory effect of the integrin blocker fusion protein obtained in Example 1 on the proliferation of various tumor cells, including melanoma cell B16F10, gastric cancer cell MGC-803, lung cancer cell A549, liver cancer cell Hep-G2, breast cancer cell MDA-MB-231, colon cancer cell HCT-116, human glioma U87, and cervical cancer cell Hela.
The tumor cells were cultured in a 5% CO2 incubator at 37° C. to a density of 90% or more, and collected by trypsinization. The cells were resuspended in the culture liquid and counted under a microscope. The cell concentration was adjusted to 3.0×10^4 cells/mL. The cell suspension was inoculated into a 96-well plate at 100 μL per well and cultured overnight in a 5% CO2 incubator at 37° C. […] After the cells were fully adhered, each dilution was added to a 96-well plate at 100 μL per well, respectively. […] 20 μL of 5 mg/mL MTT was added to each well of a 96-well plate, and incubation was continued for 4 hours. The medium was aspirated and 100 μL of DMSO per well were added to dissolve. The absorbance was measured at 570 nm with a microplate reader with a reference wavelength of 630 nm, and the proliferation inhibition (PI) was calculated. The formula is as follows: […]
where Ntest is the OD value of the test group and Ncontrol is the OD value of the blank control group.
The test was repeated 5 times independently. The results obtained from the test were calculated as mean±SD, and statistical t-test was performed. P<0.05 was considered as a significant difference, and P<0.01 was considered as an extremely significant difference.

B1: Protein II: IgG2-Fc linked to antiangiogenesis polypeptide EDSM-Y via a flexible linker; SEQ ID NO: 17 (protein)
chain: ERKCCVECPPCPAPPVAGPSVFLFPPKPKDTLMISRTPEVTCVVVDVSHEDPEVQFNWYVDGVEVHNAKTKPREEQFNSTFRVVSVLTVVHQDWLNGKEYKCKVSNKGLPAPIEKTISKTKGQPREPQVYTLPPSREEMTKNQVSLTCLVKGFYPSDISVEWESNGQPENNYKTTPPMLDSDGSFFLYSKLTVDKSRWQQGNVFSCSVMHEALHNHYTQKSLSLSPGKGGGGSGGGGSGGGGSFQPVLHLVALNSPLSGGMRGIRGADFQCFQQARAVGLAGTFRAGGGGRGD
With B1 the Weight gain ([1]; 8 mg/kg) was 44.96 ± 12.11 g, the “Clinical score Whole body” value ([1]; 8 mg/kg) was 2.23 ± 0.26 and the “Foot swelling degree Left” value ([1]; 8 mg/kg) was 1.95 ± 0.12 mL. The “Clinical score Arthritis index” value ([1]; 8 mg/kg) was 6.92 ± 0.55, the “Foot swelling degree Right” value ([1]; 8 mg/kg) was 1.77 ± 0.54 mL and the Weight gain ([1]; 32 mg/kg) was 48.10 ± 9.19 g. For the same molecule, the “Clinical score Whole body” value ([1]; 32 mg/kg) was 1.81 ± 0.32, the “Foot swelling degree Left” value ([1]; 32 mg/kg) was 1.60 ± 0.19 mL and the “Clinical score Arthritis index” value ([1]; 32 mg/kg) was 5.69 ± 0.37. For the same molecule, the “Foot swelling degree Right” value ([1]; 32 mg/kg) was 1.54 ± 0.33 mL, the Weight gain ([1]; 128 mg/kg) was 50.83 ± 15.19 g and the “Clinical score Whole body” value ([1]; 128 mg/kg) was 1.54 ± 0.19. For the same molecule, the “Foot swelling degree Left” value ([1]; 128 mg/kg) was 1.35 ± 0.14 mL, the “Clinical score Arthritis index” value ([1]; 128 mg/kg) was 4.17 ± 0.64 and the “Foot swelling degree Right” value ([1]; 128 mg/kg) was 1.35 ± 0.73 mL. The “therapeutic effect on primary arthritis (primary toe swelling degree)” value ([1]; high dose groups, compared with the model group) was “effective”, the “inhibition of the increase of peritoneal capillary permeability induced by glacial acetic acid” value ([2]; in words) was “could significantly inhibit the increase of peritoneal capillary permeability” and the “Exudation rate (OD590)” value ([2]; dose 8 mg/kg) was 0.51 ± 0.06. The “PI (%)” value ([2]; dose 8 mg/kg) was 26.09%, the “Exudation rate (OD590)” value ([2]; dose 32 mg/kg) was 0.34 ± 0.03 and the “PI (%)” value ([2]; dose 32 mg/kg) was 50.72%. The “Exudation rate (OD590)” value ([2]; dose 128 mg/kg) was 0.32 ± 0.07, the “PI (%)” value ([2]; dose 128 mg/kg) was 53.62% and the “A570 nm/A630 nm” value (human glioma U87; dose 1 μg/mL) was 0.6788 ± 0.0374. For the same molecule, the “PI (%)” value (human glioma U87; dose 1 μg/mL) was 3.01%, the “A570 nm/A630 nm” value (human glioma U87; dose 2 μg/mL) was 0.6523 ± 0.0405 and the “PI (%)” value (human glioma U87; dose 2 μg/mL) was 6.80%. For the same molecule, the “A570 nm/A630 nm” value (human glioma U87; dose 4 μg/mL) was 0.6021 ± 0.0233, the “PI (%)” value (human glioma U87; dose 4 μg/mL) was 13.97% and the “A570 nm/A630 nm” value (human glioma U87; dose 8 μg/mL) was 0.5423 ± 0.0357. The “PI (%)” value (human glioma U87; dose 8 μg/mL) was 22.52%, the “A570 nm/A630 nm” value (human glioma U87; dose 16 μg/mL) was 0.5006 ± 0.0282 and the “PI (%)” value (human glioma U87; dose 16 μg/mL) was 28.48%. The “A570 nm/A630 nm” value (human glioma U87; dose 32 μg/mL) was 0.4652 ± 0.0249, the “PI (%)” value (human glioma U87; dose 32 μg/mL) was 33.53% and the “A570 nm/A630 nm” value (human glioma U87; dose 64 μg/mL) was 0.4080 ± 0.0366. For the same molecule, the “PI (%)” value (human glioma U87; dose 64 μg/mL) was 41.71%, the “PI (%)” value (human glioma U87; dose 64 μg/mL, listed as protein II) was “about 50%” and the “A570 nm/A630 nm” value (human glioma U87; dose 128 μg/mL) was 0.3143 ± 0.0279. The “PI (%)” value (human glioma U87; dose 128 μg/mL) was 55.09%, the “A570 nm/A630 nm” value (human glioma U87; dose 256 μg/mL) was 0.2222 ± 0.0316 and the “PI (%)” value (human glioma U87; dose 256 μg/mL) was 68.25%.
